Measured values: patent US20170362323A1 (Kyowa Kirin, published 2017)

T1: CD20 on CD20-positive human lymphoma cell lines Raji and ST-486 (human, UniProt P11836 1-297)
T1 construct: whole, on cells
T1 sequence (looked up): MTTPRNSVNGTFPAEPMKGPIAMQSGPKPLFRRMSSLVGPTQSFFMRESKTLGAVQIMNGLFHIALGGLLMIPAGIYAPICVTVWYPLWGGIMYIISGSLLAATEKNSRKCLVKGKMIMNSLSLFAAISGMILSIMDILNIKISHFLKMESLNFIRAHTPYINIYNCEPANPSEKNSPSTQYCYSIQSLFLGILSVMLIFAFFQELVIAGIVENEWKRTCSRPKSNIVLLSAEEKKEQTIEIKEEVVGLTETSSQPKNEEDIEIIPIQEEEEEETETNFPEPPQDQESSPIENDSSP


molecular target: T1, CD20 on CD20-positive human lymphoma …; assay: flow cytometry competition on Raji cells, competitor GA101_Alx
From the text: CD20-positive human lymphoma cell line Raji (JCRB9012) and HER2-positive human breast cancer cell line SK-BR-3 (ATCC: HTB-30) were used to perform flow cytometry.
Further, hIgG1_Alx was used as a negative control. After washing with FACS buffer, a flow cytometer Cytomics FC 500 MPL (Beckman Coulter) was used for measurement.

Row | binding result | Binder
1 | binds | anti-CD20 IgG1 defucosylated antibody GA101/IgG1 DF (antibody, V domains shown) VH: QVQLVQSGAEVKKPGSSVKVSCKASGYAFSYSWMNWVRQAPGQGLEWMGRIFPGDGDTDYNGKFKGRVTITADKSTSTAYMELSSLRSEDTAVYYCARNVFDGYWLVYWGQGTLVTVSS VL: DIVMTQTPLSLPVTPGEPASISCRSSKSLLHSNGITYLYWYLQKPGQSPQLLIYQMSNLVSGVPDRFSGSGSGTDFTLKISRVEAEDVGVYYCAQNLELPYTFGGGTKVEIK
2 | binds | anti-CD20 IgG1 type monovalent antibody GA101/mvG1-2 F (antibody, V domains shown, Heterodimer of VH-CH and VL-CL-Fc) VH: QVQLVQSGAEVKKPGSSVKVSCKASGYAFSYSWMNWVRQAPGQGLEWMGRIFPGDGDTDYNGKFKGRVTITADKSTSTAYMELSSLRSEDTAVYYCARNVFDGYWLVYWGQGTLVTVSS VL: DIVMTQTPLSLPVTPGEPASISCRSSKSLLHSNGITYLYWYLQKPGQSPQLLIYQMSNLVSGVPDRFSGSGSGTDFTLKISRVEAEDVGVYYCAQNLELPYTFGGGTKVEIKR
3 | binds | anti-CD20 IgG1 type defucosylated monovalent antibody GA101/mvG1-2 DF (antibody, V domains shown, Same chains as GA101/mvG1-2 F, made in CHO/FUT8KO (no core fucose)) VH: QVQLVQSGAEVKKPGSSVKVSCKASGYAFSYSWMNWVRQAPGQGLEWMGRIFPGDGDTDYNGKFKGRVTITADKSTSTAYMELSSLRSEDTAVYYCARNVFDGYWLVYWGQGTLVTVSS VL: DIVMTQTPLSLPVTPGEPASISCRSSKSLLHSNGITYLYWYLQKPGQSPQLLIYQMSNLVSGVPDRFSGSGSGTDFTLKISRVEAEDVGVYYCAQNLELPYTFGGGTKVEIKR
